Test results taken from patent US20160347827A1.
Positions count from the first letter of the chain named.

What was measured:
[1] = target: soluble F glycoprotein (sF); assay: SPR, Biacore 3000, mAb captured by anti-Fc on CM5, sF in solution
[2] = target: full-length wild-type HeV F glycoprotein (Hendra virus) (UniProt O89342); assay: cell-based or functional assay
[3] = target: full-length wild-type NiV F glycoprotein (Nipah virus) (UniProt Q9IH63); assay: cell-based or functional assay
Sequence of UniProt Q9IH63 (Q9IH63 27-546): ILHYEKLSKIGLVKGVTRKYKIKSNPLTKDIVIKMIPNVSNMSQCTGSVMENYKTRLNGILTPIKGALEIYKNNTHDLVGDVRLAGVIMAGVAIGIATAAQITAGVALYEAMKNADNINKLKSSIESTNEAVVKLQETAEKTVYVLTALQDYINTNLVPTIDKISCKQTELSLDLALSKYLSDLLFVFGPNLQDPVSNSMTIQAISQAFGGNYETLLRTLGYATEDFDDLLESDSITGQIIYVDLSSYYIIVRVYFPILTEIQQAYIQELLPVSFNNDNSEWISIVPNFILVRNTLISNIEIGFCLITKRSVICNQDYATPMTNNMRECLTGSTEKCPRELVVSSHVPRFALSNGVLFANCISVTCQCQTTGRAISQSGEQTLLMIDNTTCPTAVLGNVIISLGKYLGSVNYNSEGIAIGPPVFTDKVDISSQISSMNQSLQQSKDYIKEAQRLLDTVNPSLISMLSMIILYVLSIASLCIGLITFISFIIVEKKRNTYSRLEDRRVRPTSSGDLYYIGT

Sequence of UniProt O89342 (O89342 27-546): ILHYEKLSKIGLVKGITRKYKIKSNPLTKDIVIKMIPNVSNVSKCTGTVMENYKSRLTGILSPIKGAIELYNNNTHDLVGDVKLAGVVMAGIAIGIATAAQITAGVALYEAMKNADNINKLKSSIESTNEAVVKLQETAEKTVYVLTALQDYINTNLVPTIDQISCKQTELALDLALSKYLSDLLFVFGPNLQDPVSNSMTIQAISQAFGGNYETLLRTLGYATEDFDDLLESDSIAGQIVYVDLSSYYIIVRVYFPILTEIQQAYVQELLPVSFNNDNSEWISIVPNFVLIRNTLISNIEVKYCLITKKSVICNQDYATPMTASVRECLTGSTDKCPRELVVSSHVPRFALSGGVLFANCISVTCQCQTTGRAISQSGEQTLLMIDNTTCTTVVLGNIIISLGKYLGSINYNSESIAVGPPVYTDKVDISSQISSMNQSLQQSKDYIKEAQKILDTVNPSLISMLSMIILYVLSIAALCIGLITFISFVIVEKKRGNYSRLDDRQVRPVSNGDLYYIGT

B1: murine 5B3 monoclonal antibody (antibody, V domains shown)
VH: EVQLVESGGGLVKPGGSLKLSCAASGFTFSSYDMSWVRQTPEKRLEWVAMISSGGSYSYYPDSVKGRFTISRDNAKNTLYLQMSSLRSEDTAMYYCARQGDYAWFAYWGQGTLVTVS
VL: DIQMTQSPASQSASLGESVTITCLASQTIGTWLAWYQQKPGKSPQLLIYAATSLADGVPSRFSGSGSGTKFSFKISSLQAEDFVSYYCQQFYSTPFTFGGGTKLEIKR
With B1 the Ka [1] was 3.7e+08 M⁻¹ and the Kd [1] was 0.0027 µM.

B2: humanized 5B3.1 IgG1 (antibody, V domains shown)
VH: EVQLVESGGGLVKPGGSLRLSCAASGFTFSSYSMSWVRQAPGKGLEWVAMISSGGSYSYYADSVKGRFTISRDNSKNTLYLQMNSLRAEDTAVYYCARQGDYAWFDIWGQGTLVTVS
VL: DIQMTQSPSSLSASVGDRVTITCLASQTIGTWLAWYQQKPGKAPKLLIYAATSLADGVPSRFSGSGSGTDFTLTISSLQPEDFATYYCQQFYSTPFTFGGGTKLEIKR
In the case of B2, the virus neutralization titer, HeV 100 TCID50 (cpe fully inhibited, Vero cells) [2] is reported as > 100 µg/mL, the virus neutralization titer, HeV 200 TCID50 (cpe fully inhibited, Vero cells) [2] is reported as > 100 µg/mL and the virus neutralization titer, NiV 100 TCID50 (cpe fully inhibited, Vero cells) [3] is reported as > 100 µg/mL. The virus neutralization titer, NiV 200 TCID50 (cpe fully inhibited, Vero cells) [3] was > 100 µg/mL, the Ka [1] was 1.6e+07 M⁻¹ and the Kd [1] was 0.062 µM. For the same binder, the koff [1] was 0.0017 s⁻¹ and the kon [1] was 27000 M⁻¹ s⁻¹.

B3: humanized 5B3 IgG1 (antibody, V domains shown)
VH: B2 VH with S33D, A61P, D106A, I107Y
VL: B2 VL
Binder B3 has a virus neutralization titer, HeV 100 TCID50 (cpe fully inhibited, Vero cells) [2] of 0.78 µg/mL, a virus neutralization titer, HeV 200 TCID50 (cpe fully inhibited, Vero cells) [2] of 12.5 µg/mL and a virus neutralization titer, NiV 100 TCID50 (cpe fully inhibited, Vero cells) [3] of 1.56 µg/mL. For the same binder, the virus neutralization titer, NiV 200 TCID50 (cpe fully inhibited, Vero cells) [3] was 3.12 µg/mL, the Ka [1] was 7.5e+07 M⁻¹ and the Kd [1] was 0.013 µM. It also gave a koff [1] of 0.00033 s⁻¹ and a kon [1] of 25000 M⁻¹ s⁻¹.
